Measurements published in US20210388079A1 (IMMATICS BIOTECHNOLOGIES, published 2021).
Like-named read-outs stand apart in the source and are kept apart here.

Columns and labels:
Assay in all cases: cell-based or functional assay
[1] = biological target: T1, HLA-A*02-presented SPINK2-001 on target cells (T2 cells loaded with SPINK2-001 peptide); A375 cells … (human)
[2] = biological target: T1, HLA-A*02-presented SPINK2-001 on target …; remark: listed apart in the source
[3] = biological target: T1, HLA-A*02-presented SPINK2-001 on target …; remark: listed apart in the source

B1: TCR R44P3E7, alpha and beta chains expressed in human primary CD8+ T-cells by RNA electroporation (TCR, V domains shown)
V domain 1: RGEDVEQSLFLSVREGDSSVINCTYTDSSSTYLYWYKQEPGAGLQLLTYIFSNMDMKQDQRLTVLLNKKDKHLSLRIADTQTGDSAIYFCAEINNNARLMFGDGTQLVVKP
V domain 2: AAGVIQSPRHLIKEKRETATLKCYPIPRHDTVYWYQQGPGQDPQFLISFYEKMQSDKGSIPDRFSAQQFSDYHSELNMSSLELGDSALYFCASSPPDQNTQYFGPGTRLTVLE
B1 was tested, and the “EC50 (read off the curve), IFNγ release, donor TCRA-0023” value [1] was about 0.6 nM and the “EC50 (read off the curve), IFNγ release, donor TCRA-0024” value (“EC50 … donor TCRA-0024” for short) [1] was about 1 nM.

B2: TCR R40P1C2, alpha and beta chains expressed in human primary CD8+ T-cells by RNA electroporation (TCR, V domains shown)
V domain 1: QTVTQSQPEMSVQEAETVTLSCTYDTSESDYYLFWYKQPPSRQMILVIRQEAYKQQNATENRFSVNFQKAAKSFSLKISDSQLGDAAMYFCAYLNYQLIWGAGTKLIIKP
V domain 2: EPEVTQTPSHQVTQMGQEVILRCVPISNHLYFYWYRQILGQKVEFLVSFYNNEISEKSEIFDDQFSVERPDGSNFTLKIRSTKLEDSAMYFCASSEMTAVGQYFGPGTRLTVTE
In the case of B2, the “EC50 … donor TCRA-0024” value [2] is reported as about 3 nM.

B3: TCR R59P2A7, alpha and beta chains expressed in human primary CD8+ T-cells by RNA electroporation (TCR, V domains shown)
V domain 1: QKEVEQNSGPLSVPEGAIASLNCTYSDRGSQSFFWYRQYSGKSPELIMSIYSNGDKEDGRFTAQLNKASQYVSLLIRDSQPSDSATYLCAVQPHDMRFGAGTRLTVKP
V domain 2: SQTIHQWPATLVQPVGSPLSLECTVEGTSNPNLYWYRQAAGRGLQLLFYSVGIGQISSEVPQNLSASRPQDRQFILSSKKLLLSDSGFYLCAWSGLVAEQFFGPGTRLTVLE
B3 was tested, and the “EC50 (read off the curve), IFNγ release, donor TCRA-0023” value [3] was about 10 nM and the “EC50 … donor TCRA-0024” value [3] was about 50 nM.
